Values quoted from earlier work in PMC4557399.

What was measured:
[1] = molecular target: F1-ATP synthase beta subunit (UniProt P06576); experiment: surface plasmon resonance
[2] = molecular target: F1-ATP synthase beta subunit (Bos taurus) (UniProt P00829); experiment: bovine retinal endothelial cell binding
Sequence of F1-ATP synthase beta subunit (Bos taurus) (P00829 47-528): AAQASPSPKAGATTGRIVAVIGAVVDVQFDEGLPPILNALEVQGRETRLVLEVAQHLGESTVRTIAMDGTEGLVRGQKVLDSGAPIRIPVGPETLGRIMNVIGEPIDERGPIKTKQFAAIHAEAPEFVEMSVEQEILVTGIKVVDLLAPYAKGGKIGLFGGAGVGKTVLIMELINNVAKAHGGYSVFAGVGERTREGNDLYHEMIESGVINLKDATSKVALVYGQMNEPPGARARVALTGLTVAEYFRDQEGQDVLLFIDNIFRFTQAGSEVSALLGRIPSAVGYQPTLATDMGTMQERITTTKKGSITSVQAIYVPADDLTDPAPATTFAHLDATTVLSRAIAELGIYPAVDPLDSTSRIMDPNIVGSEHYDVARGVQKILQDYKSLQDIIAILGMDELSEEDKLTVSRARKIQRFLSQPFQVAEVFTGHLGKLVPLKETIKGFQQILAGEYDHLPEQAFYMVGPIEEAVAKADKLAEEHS

Sequence of PEDF (P36955 20-418): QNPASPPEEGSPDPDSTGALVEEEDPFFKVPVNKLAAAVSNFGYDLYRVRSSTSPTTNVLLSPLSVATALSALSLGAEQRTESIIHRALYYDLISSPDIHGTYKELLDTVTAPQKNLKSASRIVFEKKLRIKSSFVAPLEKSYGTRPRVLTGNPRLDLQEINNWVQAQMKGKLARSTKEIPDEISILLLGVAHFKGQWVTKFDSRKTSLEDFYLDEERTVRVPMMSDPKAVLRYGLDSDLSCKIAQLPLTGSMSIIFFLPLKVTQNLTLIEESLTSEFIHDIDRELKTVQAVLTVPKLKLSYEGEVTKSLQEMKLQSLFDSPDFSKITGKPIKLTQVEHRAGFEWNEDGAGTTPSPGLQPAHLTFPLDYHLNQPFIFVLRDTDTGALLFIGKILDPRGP
Sequence of F1-ATP synthase beta subunit (P06576 48-529): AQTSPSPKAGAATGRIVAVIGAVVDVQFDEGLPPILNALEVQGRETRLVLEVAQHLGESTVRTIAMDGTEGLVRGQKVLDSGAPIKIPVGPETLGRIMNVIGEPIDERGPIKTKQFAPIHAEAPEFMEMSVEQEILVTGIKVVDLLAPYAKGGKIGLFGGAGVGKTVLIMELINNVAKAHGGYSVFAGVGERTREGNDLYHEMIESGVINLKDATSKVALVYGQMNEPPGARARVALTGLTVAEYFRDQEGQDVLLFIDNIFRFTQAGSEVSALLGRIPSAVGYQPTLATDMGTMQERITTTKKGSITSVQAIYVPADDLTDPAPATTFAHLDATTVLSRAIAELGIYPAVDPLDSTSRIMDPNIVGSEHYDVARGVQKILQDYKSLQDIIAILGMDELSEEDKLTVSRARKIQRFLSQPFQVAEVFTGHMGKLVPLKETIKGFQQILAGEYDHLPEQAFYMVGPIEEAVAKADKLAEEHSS

Substance: PEDF (from UniProt P36955)
- Kd [1]: 1.51 nM
- Kd [2]: 4 nM
